This is an account of results in patent US20140087995A1 (published 2014).

Assay [1] has as its target T1, human calcitonin receptor (human, UniProt P30988 25-474).
T1 construct: whole, on cells; Cell membranes of a stably transfected BHK cell line (Assay VII); also called hCTR; hCT
T1 sequence (looked up): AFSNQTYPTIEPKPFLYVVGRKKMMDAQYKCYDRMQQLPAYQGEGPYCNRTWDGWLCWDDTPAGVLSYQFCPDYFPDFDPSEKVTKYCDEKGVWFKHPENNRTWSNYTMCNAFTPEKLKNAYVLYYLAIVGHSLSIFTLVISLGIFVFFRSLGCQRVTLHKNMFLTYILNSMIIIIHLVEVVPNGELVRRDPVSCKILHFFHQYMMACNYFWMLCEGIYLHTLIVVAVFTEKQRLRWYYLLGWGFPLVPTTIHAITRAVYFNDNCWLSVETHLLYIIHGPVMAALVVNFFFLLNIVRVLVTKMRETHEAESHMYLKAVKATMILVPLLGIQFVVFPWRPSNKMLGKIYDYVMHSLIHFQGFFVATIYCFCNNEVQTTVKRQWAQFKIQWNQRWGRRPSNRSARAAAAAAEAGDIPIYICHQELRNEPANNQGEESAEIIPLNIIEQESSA
Briefly: ratio IC50 human calcitonin receptor / IC50 human amylin receptor. An outline of the steps:
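IC₅₀ values were derived by one-site competition analysis of SPA counts. Cell membranes (35 ng/μL) with SPA beads were incubated with test compounds for 120 min at 25° C in Hepes buffer, pH 7.4, containing CaCl2, MgCl₂, OA and Tween20.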

Assay [2] addresses T2, rat calcitonin receptor (rat, UniProt P32214 25-516).
T2 construct: whole, on cells; Cell membranes of transiently transfected BHK tk'ts 13 cells (Assay VIII); also called rCTR; rCT
T2 sequence (looked up): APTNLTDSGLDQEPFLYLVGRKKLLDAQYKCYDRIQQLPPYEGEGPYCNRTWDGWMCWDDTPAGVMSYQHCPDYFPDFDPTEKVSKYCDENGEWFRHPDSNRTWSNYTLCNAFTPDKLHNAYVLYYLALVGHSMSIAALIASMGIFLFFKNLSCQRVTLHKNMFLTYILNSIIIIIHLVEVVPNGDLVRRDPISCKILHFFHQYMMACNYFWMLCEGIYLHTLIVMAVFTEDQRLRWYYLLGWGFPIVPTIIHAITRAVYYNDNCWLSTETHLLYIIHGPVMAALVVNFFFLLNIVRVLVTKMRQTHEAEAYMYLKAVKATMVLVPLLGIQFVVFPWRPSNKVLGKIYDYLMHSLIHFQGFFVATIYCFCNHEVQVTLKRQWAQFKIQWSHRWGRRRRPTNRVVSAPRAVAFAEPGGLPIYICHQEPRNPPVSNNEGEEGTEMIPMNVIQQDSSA
Briefly: SPA competition vs 125I-calcitonin, membranes with rat CTR (Assay VIII).

Assay [3] has as its target T3, rat amylin receptor (rat calcitonin receptor + rat RAMP 3) (rat, UniProt P32214 25-516; Q9JJ73 23-147).
T3 construct: whole, on cells; Cell membranes of transiently transfected BHK tk'ts 13 cells (Assay VI); also called rAmylin-R; rat amylin 3(a) receptor
T3 sequence (looked up) 1: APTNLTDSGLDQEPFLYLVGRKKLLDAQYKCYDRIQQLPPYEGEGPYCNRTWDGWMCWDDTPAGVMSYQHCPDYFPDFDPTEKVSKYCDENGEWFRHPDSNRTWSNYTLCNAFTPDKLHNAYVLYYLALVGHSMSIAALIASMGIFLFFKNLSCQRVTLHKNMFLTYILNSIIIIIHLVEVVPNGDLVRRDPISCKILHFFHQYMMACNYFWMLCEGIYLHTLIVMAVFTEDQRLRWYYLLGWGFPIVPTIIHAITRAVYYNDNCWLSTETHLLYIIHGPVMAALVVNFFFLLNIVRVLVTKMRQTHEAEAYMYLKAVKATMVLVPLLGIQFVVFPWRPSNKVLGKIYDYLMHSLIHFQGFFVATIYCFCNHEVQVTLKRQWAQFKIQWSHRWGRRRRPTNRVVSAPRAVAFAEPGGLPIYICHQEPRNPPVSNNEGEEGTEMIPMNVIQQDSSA
T3 sequence (looked up) 2: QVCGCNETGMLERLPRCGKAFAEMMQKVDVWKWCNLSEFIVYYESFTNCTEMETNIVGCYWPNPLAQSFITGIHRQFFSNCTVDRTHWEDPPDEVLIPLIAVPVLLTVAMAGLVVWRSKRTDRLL
The assay can be described thus: SPA competition vs 125I-rat amylin, membranes with rat CTR + rat RAMP3 (Assay VI).

In assay [4] the target is T2, rat calcitonin receptor. Briefly: ratio IC50 rat calcitonin receptor / IC50 rat amylin receptor.

Numbered stars: 1 amine (or outer) side, 2 acyl side, 3 side chain; on linkers, the order of the positions; unused ones are H or OH. Bridge positions count the residues as written; N and C are the ends. Side chains are listed from the residue outwards. Ends that are not written are not given here. * marks the point of attachment. C20 diacid = O=C(O)CCCCCCCCCCCCCCCCCCC(=O)*; γGlu = O=C(O)[C@H](CCC(=O)[*:2])N[*:1]; AEEA = NCCOCCOCC(=O)O

B1: N^α1-[2-[2-[2-[[2-[2-[2-[[(4S)-4-carboxy-4-(19-carboxynonadecanoylamino)butanoyl]amino]ethoxy]ethoxy]acetyl]amino]ethoxy]ethoxy]acetyl]-[Arg17,Pro21,Pro27]-h-am … (peptide)
peptide: KCNTATCATQRLANFLRHSSPNFGAIPSSTNVGSNTY
modifications: C20 diacid-gGlu-2xOEG on alpha-amino of the N-terminal residue; Cys2-Cys7 disulfide; C-terminal amide (as human amylin)
notes: Acylated analogue of human amylin; also called compound 24
Broadly, the IC50 is the concentration that gives 50% inhibition. As to B1, the “Ratio hCT/hAmylin binding” value in assay [1] came out at 90. The IC50 is 350 nM with rat calcitonin receptor [2] and 3.01 nM in assay [3]. Besides, the “Ratio rCT/rAmylin binding” value in the assay with rat calcitonin receptor [4] worked out at 116.

B2: N^α1-[(4S)-4-carboxy-4-(19-carboxynonadecanoylamino)butanoyl]-[Glu14,Arg17,Pro21,Pro25,Pro28,Pro29]-h-amylin (peptide)
peptide: {C20 diacid-γGlu}-KCNTATCATQRLAEFLRHSSPNFGPILPPTNVGSNTY-NH2
modifications: disulfide 2-7
SMILES: CC[C@H](C)[C@H](NC(=O)[C@@H]1CCCN1C(=O)CNC(=O)[C@H](Cc1ccccc1)NC(=O)[C@H](CC(N)=O)NC(=O)[C@@H]1CCCN1C(=O)[C@H](CO)NC(=O)[C@H](CO)NC(=O)[C@H](Cc1c[nH]cn1)NC(=O)[C@H](CCCNC(=N)N)NC(=O)[C@H](CC(C)C)NC(=O)[C@H](Cc1ccccc1)NC(=O)[C@H](CCC(=O)O)NC(=O)[C@H](C)NC(=O)[C@H](CC(C)C)NC(=O)[C@H](CCCNC(=N)N)NC(=O)[C@H](CCC(N)=O)NC(=O)[C@@H](NC(=O)[C@H](C)NC(=O)[C@@H]1CSSC[C@H](NC(=O)[C@H](CCCCN)NC(=O)CC[C@H](NC(=O)CCCCCCCCCCCCCCCCCCC(=O)O)C(=O)O)C(=O)N[C@@H](CC(N)=O)C(=O)N[C@@H]([C@@H](C)O)C(=O)N[C@@H](C)C(=O)N[C@@H]([C@@H](C)O)C(=O)N1)[C@@H](C)O)C(=O)N[C@@H](CC(C)C)C(=O)N1CCC[C@H]1C(=O)N1CCC[C@H]1C(=O)N[C@H](C(=O)N[C@@H](CC(N)=O)C(=O)N[C@H](C(=O)NCC(=O)N[C@@H](CO)C(=O)N[C@@H](CC(N)=O)C(=O)N[C@H](C(=O)N[C@@H](Cc1ccc(O)cc1)C(N)=O)[C@@H](C)O)C(C)C)[C@@H](C)O
notes: Acylated analogue of human amylin; also called compound 6
Consider B2, for which, in assay [1], the “Ratio hCT/hAmylin binding” value was found to be 20. Further, the values for the IC50 (in the assay with rat calcitonin receptor [2]; in assay [3]) were 51.5 nM and 2.37 nM, respectively. In addition, in the assay with rat calcitonin receptor [4], the “Ratio rCT/rAmylin binding” value is 21.7.

B3: N^ε1-[2-[2-[2-(19-carboxynonadecanoylamino)ethoxy]ethoxy]acetyl]-[Arg17,Pro21,Pro27]-h-amylin (peptide)
peptide: K([AEEA-C20 diacid])CNTATCATQRLANFLRHSSPNFGAIPSSTNVGSNTY-NH2
modifications: disulfide 2-7; N-terminus assumed
SMILES: CC[C@H](C)[C@H](NC(=O)[C@H](C)NC(=O)CNC(=O)[C@H](Cc1ccccc1)NC(=O)[C@H](CC(N)=O)NC(=O)[C@@H]1CCCN1C(=O)[C@H](CO)NC(=O)[C@H](CO)NC(=O)[C@H](Cc1c[nH]cn1)NC(=O)[C@H](CCCNC(=N)N)NC(=O)[C@H](CC(C)C)NC(=O)[C@H](Cc1ccccc1)NC(=O)[C@H](CC(N)=O)NC(=O)[C@H](C)NC(=O)[C@H](CC(C)C)NC(=O)[C@H](CCCNC(=N)N)NC(=O)[C@H](CCC(N)=O)NC(=O)[C@@H](NC(=O)[C@H](C)NC(=O)[C@@H]1CSSC[C@H](NC(=O)[C@@H](N)CCCCNC(=O)COCCOCCNC(=O)CCCCCCCCCCCCCCCCCCC(=O)O)C(=O)N[C@@H](CC(N)=O)C(=O)N[C@@H]([C@@H](C)O)C(=O)N[C@@H](C)C(=O)N[C@@H]([C@@H](C)O)C(=O)N1)[C@@H](C)O)C(=O)N1CCC[C@H]1C(=O)N[C@@H](CO)C(=O)N[C@@H](CO)C(=O)N[C@H](C(=O)N[C@@H](CC(N)=O)C(=O)N[C@H](C(=O)NCC(=O)N[C@@H](CO)C(=O)N[C@@H](CC(N)=O)C(=O)N[C@H](C(=O)N[C@@H](Cc1ccc(O)cc1)C(N)=O)[C@@H](C)O)C(C)C)[C@@H](C)O
notes: Acylated analogue of human amylin; also called compound 43
Regarding B3, the “Ratio hCT/hAmylin binding” value in assay [1] was determined as 34.7. Moreover, the IC50 with rat calcitonin receptor [2] came to 7.6 nM; in assay [3], 0.11 nM. Further, the “Ratio rCT/rAmylin binding” value in the assay with rat calcitonin receptor [4] worked out at 69.1.

B4: N^ε1-[2-[2-[2-[[(4S)-4-carboxy-4-(19-carboxynonadecanoylamino)butanoyl]amino]ethoxy]ethoxy]acetyl]-[Arg17,Pro21,Pro27]-h-amylin (peptide)
peptide: K([AEEA-γGlu-C20 diacid])CNTATCATQRLANFLRHSSPNFGAIPSSTNVGSNTY-NH2
modifications: disulfide 2-7; N-terminus assumed
SMILES: CC[C@H](C)[C@H](NC(=O)[C@H](C)NC(=O)CNC(=O)[C@H](Cc1ccccc1)NC(=O)[C@H](CC(N)=O)NC(=O)[C@@H]1CCCN1C(=O)[C@H](CO)NC(=O)[C@H](CO)NC(=O)[C@H](Cc1c[nH]cn1)NC(=O)[C@H](CCCNC(=N)N)NC(=O)[C@H](CC(C)C)NC(=O)[C@H](Cc1ccccc1)NC(=O)[C@H](CC(N)=O)NC(=O)[C@H](C)NC(=O)[C@H](CC(C)C)NC(=O)[C@H](CCCNC(=N)N)NC(=O)[C@H](CCC(N)=O)NC(=O)[C@@H](NC(=O)[C@H](C)NC(=O)[C@@H]1CSSC[C@H](NC(=O)[C@@H](N)CCCCNC(=O)COCCOCCNC(=O)CC[C@H](NC(=O)CCCCCCCCCCCCCCCCCCC(=O)O)C(=O)O)C(=O)N[C@@H](CC(N)=O)C(=O)N[C@@H]([C@@H](C)O)C(=O)N[C@@H](C)C(=O)N[C@@H]([C@@H](C)O)C(=O)N1)[C@@H](C)O)C(=O)N1CCC[C@H]1C(=O)N[C@@H](CO)C(=O)N[C@@H](CO)C(=O)N[C@H](C(=O)N[C@@H](CC(N)=O)C(=O)N[C@H](C(=O)NCC(=O)N[C@@H](CO)C(=O)N[C@@H](CC(N)=O)C(=O)N[C@H](C(=O)N[C@@H](Cc1ccc(O)cc1)C(N)=O)[C@@H](C)O)C(C)C)[C@@H](C)O
notes: Acylated analogue of human amylin; also called compound 41
Consider B4, for which, in assay [1], the “Ratio hCT/hAmylin binding” value was determined as 49.9. Moreover, the IC50 amounted to 74.1 nM in the assay with rat calcitonin receptor [2] and 1.37 nM in assay [3]. Moreover, in the assay with rat calcitonin receptor [4], the “Ratio rCT/rAmylin binding” value turned out to be 54.

B5: N^-1-[(4S)-4-carboxy-4-(19-carboxynonadecanoylamino)butanoyl]-Gly[Arg1,Arg17,Pro21,Pro27,His35]-h-amylin (peptide)
peptide: {C20 diacid-γGlu}-GRCNTATCATQRLANFLRHSSPNFGAIPSSTNVGSHTY-NH2
modifications: disulfide 3-8
SMILES: CC[C@H](C)[C@H](NC(=O)[C@H](C)NC(=O)CNC(=O)[C@H](Cc1ccccc1)NC(=O)[C@H](CC(N)=O)NC(=O)[C@@H]1CCCN1C(=O)[C@H](CO)NC(=O)[C@H](CO)NC(=O)[C@H](Cc1c[nH]cn1)NC(=O)[C@H](CCCNC(=N)N)NC(=O)[C@H](CC(C)C)NC(=O)[C@H](Cc1ccccc1)NC(=O)[C@H](CC(N)=O)NC(=O)[C@H](C)NC(=O)[C@H](CC(C)C)NC(=O)[C@H](CCCNC(=N)N)NC(=O)[C@H](CCC(N)=O)NC(=O)[C@@H](NC(=O)[C@H](C)NC(=O)[C@@H]1CSSC[C@H](NC(=O)[C@H](CCCNC(=N)N)NC(=O)CNC(=O)CC[C@H](NC(=O)CCCCCCCCCCCCCCCCCCC(=O)O)C(=O)O)C(=O)N[C@@H](CC(N)=O)C(=O)N[C@@H]([C@@H](C)O)C(=O)N[C@@H](C)C(=O)N[C@@H]([C@@H](C)O)C(=O)N1)[C@@H](C)O)C(=O)N1CCC[C@H]1C(=O)N[C@@H](CO)C(=O)N[C@@H](CO)C(=O)N[C@H](C(=O)N[C@@H](CC(N)=O)C(=O)N[C@H](C(=O)NCC(=O)N[C@@H](CO)C(=O)N[C@@H](Cc1c[nH]cn1)C(=O)N[C@H](C(=O)N[C@@H](Cc1ccc(O)cc1)C(N)=O)[C@@H](C)O)C(C)C)[C@@H](C)O
notes: Acylated analogue of human amylin, extended by one residue at the N-terminus; also called compound 47
In the case of B5, the “Ratio hCT/hAmylin binding” value in assay [1] is 44.9. The IC50 with rat calcitonin receptor [2] amounted to 17.1 nM; in assay [3], 0.203 nM. The “Ratio rCT/rAmylin binding” value with rat calcitonin receptor [4] was 84.3.
